Data set [1] deals with HeLa Kyoto. Description: solubility in G1/S (NP-40 vs SDS abundance) (log2 ratio); higher = more soluble. Conditions: cell cycle stage: G1/S.
For data set [2], the system named is HeLa Kyoto. As to the kind of experiment: thermal stability score vs G1/S (z-score of summed log2 fold changes over temperatures); higher = more thermally stable than in G1/S.
The subject of data set [3] is HeLa Kyoto. Description: melting temperature (median over replicates), in situ; higher = more thermally stable.
Data set [4] has as its system HeLa Kyoto. Description: solubility change mitosis vs G1/S (difference of NP-40 vs SDS log2 ratios) (log2 ratio difference); higher = more soluble in mitosis.
[5] abbreviates: cell cycle stage: early G1 (4.5 h after nocodazole release).
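For melting temperature (median over replicates), in situ in this document: HeLa Kyoto cells synchronized by double thymidine or nocodazole block, proteins quantified by TMT10plex mass spectrometry, three independent biological replicates.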
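For solubility change mitosis vs G1/S (difference of NP-40 vs SDS log2 ratios) in this document: synchronized HeLa Kyoto cells (double thymidine block for G1/S, nocodazole release for mitosis), protein amounts in NP-40 versus SDS lysates quantified by mass spectrometry, three biological replicates.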
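For solubility in G1/S (NP-40 vs SDS abundance) in this document: HeLa Kyoto cells arrested at G1/S by double thymidine block, proteins quantified by TMT10plex mass spectrometry in mild NP-40 versus SDS extracts, three biological replicates.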
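For thermal stability score vs G1/S (z-score of summed log2 fold changes over temperatures) in this document: synchronized HeLa Kyoto cells, proteins quantified by TMT10plex mass spectrometry, three biological replicates, mitosis taken 0.5 h after nocodazole release, G1/S directly after double thymidine block.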

As for “MWRRKHPRTSGGTRGVLSGNRGVEYGSGRGHLGTFEGRWRKLPKMPEAVGTDPSTSRKMAELEEVTLDGKPLQALRVTDLKAALEQRGLAKSGQKSALVKRLKGALMLENLQKHSTPHAAFQPNSQIGEEMSQNSFIKQYLEKQQELLRQRLEREAREAAELEEASAESEDEMIHPEGVASLLPPDFQSSLERPELELSRHSPRKSSSISEEKGDSDDEKPRKGERRSSRVRQARAAKLSEGSQPAEEEEDQETPSRNLRVRADRNLKTEEEEEEEEEEEEDDEEEEGDDEGQKSREAPILKEFKEEGEEIPRVKPEEMMDERPKTRSQEQEVLERGGRFTRSQEEARKSHLARQQQEKEMKTTSPLEEEEREIKSSQGLKEKSKSPSPPRLTEDRKKASLVALPEQTASEEETPPPLLTKEASSPPPHPQLHSEEEIEPMEGPAPAVLIQLSPPNTDADTRELLVSQHTVQLVGGLSPLSSPSDTKAESPAEKVPEESVLPLVQKSTLADYSAQKDLEPESDRSAQPLPLKIEELALAKGITEECLKQPSLEQKEGRRASHTLLPSHRLKQSADSSSSRSSSSSSSSSRSRSRSPDSSGSRSHSPLRSKQRDVAQARTHANPRGRPKMGSRSTSESRSRSRSRSRSASSNSRKSLSPGVSRDSSTSYTETKDPSSGQEVATPPVPQLQVCEPKERTSTSSSSVQARRLSQPESAEKHVTQRLQPERGSPKKCEAEEAEPPAATQPQTSETQTSHLPESERIHHTVEEKEEVTMDTSENRPENDVPEPPMPIADQVSNDDRPEGSVEDEEKKESSLPKSFKRKISVVSATKGVPAGNSDTEGGQPGRKRRWGASTATTQKKPSISITTESLKSLIPDIKPLAGQEAVVDLHADDSRISEDETERNGDDGTHDKGLKICRTVTQVVPAEGQENGQREEEEEEKEPEAEPPVPPQVSVEVALPPPAEHEVKKVTLGDTLTRRSISQQKSGVSITIDDPVRTAQVPSPPRGKISNIVHISNLVRPFTLGQLKELLGRTGTLVEEAFWIDKIKSHCFVTYSTVEEAVATRTALHGVKWPQSNPKFLCADYAEQDELDYHRGLLVDRPSETKTEEQGIPRPLHPPPPPPVQPPQHPRAEQREQERAVREQWAEREREMERRERTRSEREWDRDKVREGPRSRSRSRDRRRKERAKSKEKKSEKKEKAQEEPPAKLLDDLFRKTKAAPCIYWLPLTDSQIVQKEAERAERAKEREKRRKEQEEEEQKEREKEAERERNRQLEREKRREHSRERDRERERERERDRGDRDRDRERDRERGRERDRRDTKRHSRSRSRSTPVRDRGGRR [ACIN1]”, the “solubility in G1/S (log2)” value in data set [1] is -1.35. Further, the results for the thermal stability score in data set [2] (setting [5]) and in data set [2] (cell cycle stage: mitosis) were -3.76 and -1.15, respectively. In addition, the melting temperature in data set [3] (cell cycle stage: G1/S) turned out to be 49.6 °C; in data set [3] (cell cycle stage: mitosis), 50.8 °C. Also, the “solubility change mitosis (log2)” value in data set [4] is 0.887.

“MWTLVSWVALTAGLVAGTRCPDGQFCPVACCLDPGGASYSCCRPLLDKWPTTLSRHLGGPCQVDAHCSAGHSCIFTVSGTSSCCPFPEAVACGDGHHCCPRGFHCSADGRSCFQRSGNNSVGAIQCPDSQFECPDFSTCCVMVDGSWGCCPMPQASCCEDRVHCCPHGAFCDLVHTRCITPTGTHPLAKKLPAQRTNRAVALSSSVMCPDARSRCPDGSTCCELPSGKYGCCPMPNATCCSDHLHCCPQDTVCDLIQSKCLSKENATTDLLTKLPAHTVGDVKCDMEVSCPDGYTCCRLQSGAWGCCPFTQAVCCEDHIHCCPAGFTCDTQKGTCEQGPHQVPWMEKAPAHLSLPDPQALKRDVPCDNVSSCPSSDTCCQLTSGEWGCCPIPEAVCCSDHQHCCPQGYTCVAEGQCQRGSEIVAGLEKMPARRASLSHPRDIGCDQHTSCPVGQTCCPSLGGSWACCQLPHAVCCEDRQHCCPAGYTCNVKARSCEKEVVSAQPATFLARSPHVGVKDVECGEGHFCHDNQTCCRDNRQGWACCPYRQGVCCADRRHCCPAGFRCAARGTKCLRREAPRWDAPLRDPALRQLL [GRN]”: the “solubility in G1/S (log2)” value in data set [1] worked out at 0.135. Also, the thermal stability score was -2.57 in data set [2] (setting [5]) and -3.69 in data set [2] (cell cycle stage: mitosis). Besides, the melting temperature in data set [3] (cell cycle stage: G1/S) came to 54.9 °C; in data set [3] (cell cycle stage: mitosis), 60.5 °C. Moreover, in data set [4], the “solubility change mitosis (log2)” value is -0.134.

“MYATDSRGHSPAFLQPQNGNSRHPSGYVPGKVVPLRPPPPPKSQASAKFTSIRREDRATFAFSPEEQQAQRESQKQKRHKNTFICFAITSFSFFIALAIILGISSKYAPDENCPDQNPRLRNWDPGQDSAKQVVIKEGDMLRLTSDATVHSIVIQDGGLLVFGDNKDGSRNITLRTHYILIQDGGALHIGAEKCRYKSKATITLYGKSDEGESMPTFGKKFIGVEAGGTLELHGARKASWTLLARTLNSSGLPFGSYTFEKDFSRGLNVRVIDQDTAKILESERFDTHEYRNESRRLQEFLRFQDPGRIVAIAVGDSAAKSLLQGTIQMIQERLGSELIQGLGYRQAWALVGVIDGGSTSCNESVRNYENHSSGGKALAQREFYTVDGQKFSVTAYSEWIEGVSLSGFRVEVVDGVKLNLLDDVSSWKPGDQIVVASTDYSMYQAEEFTLLPCSECSHFQVKVKETPQFLHMGEIIDGVDMRAEVGILTRNIVIQGEVEDSCYAENQCQFFDYDTFGGHIMIMKNFTSVHLSYVELKHMGQQQMGRYPVHFHLCGDVDYKGGYRHATFVDGLSIHHSFSRCITVHGTNGLLIKDTIGFDTLGHCFFLEDGIEQRNTLFHNLGLLTKPGTLLPTDRNNSMCTTMRDKVFGNYIPVPATDCMAVSTFWIAHPNNNLINNAAAGSQDAGIWYLFHKEPTGESSGLQLLAKPELTPLGIFYNNRVHSNFKAGLFIDKGVKTTNSSAADPREYLCLDNSARFRPHQDANPEKPRVAALIDRLIAFKNNDNGAWVRGGDIIVQNSAFADNGIGLTFASDGSFPSDEGSSQEVSESLFVGESRNYGFQGGQNKYVGTGGIDQKPRTLPRNRTFPIRGFQIYDGPIHLTRSTFKKYVPTPDRYSSAIGFLMKNSWQITPRNNISLVKFGPHVSLNVFFGKPGPWFEDCEMDGDKNSIFHDIDGSVTGYKDAYVGRMDNYLIRHPSCVNVSKWNAVICSGTYAQVYVQTWSTQNLSMTITRDEYPSNPMVLRGINQKAAFPQYQPVVMLEKGYTIHWNGPAPRTTFLYLVNFNKNDWIRVGLCYPSNTSFQVTFGYLQRQNGSLSKIEEYEPVHSLEELQRKQSERKFYFDSSTGLLFLYLKAKSHRHGHSYCSSQGCERVKIQAATDSKDISNCMAKAYPQYYRKPSVVKRMPAMLTGLCQGCGTRQVVFTSDPHKSYLPVQFQSPDKAETQRGDPSVISVNGTDFTFRSAGVLLLVVDPCSVPFRLTEKTVFPLADVSRIEEYLKTGIPPRSIVLLSTRGEIKQLNISHLLVPLGLAKPAHLYDKGSTIFLGFSGNFKPSWTKLFTSPAGQGLGVLEQFIPLQLDEYGCPRATTVRRRDLELLKQASKAH [TMEM2]”: the “solubility in G1/S (log2)” value in data set [1] was 0.114. Also, the thermal stability score is -1.5 in data set [2] (setting [5]) and -0.419 in data set [2] (cell cycle stage: mitosis). The melting temperature was 55.3 °C in data set [3] (cell cycle stage: G1/S) and 55.5 °C in data set [3] (cell cycle stage: mitosis). For the same substance, the “solubility change mitosis (log2)” value in data set [4] was -0.018.

Turning to MYCBP2, in data set [1], the “solubility in G1/S (log2)” value is -0.39. Also, the thermal stability score in data set [2] (setting [5]) is -0.686; in data set [2] (cell cycle stage: mitosis), -0.306. Also, the figures for the melting temperature in data set [3] (cell cycle stage: G1/S) and in data set [3] (cell cycle stage: mitosis) were 51.4 °C and 50.8 °C, respectively. Further, the “solubility change mitosis (log2)” value in data set [4] is 0.0594.

The values are drawn from the supplement of paper PMC5998384.
